Blank lines part the entries; values can stand above or below the binder they belong to.
B1: MIOS (subunit of the recombinant GATOR2 complex) (natural protein, human)
chain: MSGTKPDILWAPHHVDRFVVCDSELSLYHVESTVNSELKAGSLRLSEDSAATLLSINSDTPYMKCVAWYLNYDPECLLAVGQANGRVVLTSLGQDHNSKFKDLIGKEFVPKHARQCNTLAWNPLDSNWLAAGLDKHRADFSVLIWDICSKYTPDIVPMEKVKLSAGETETTLLVTKPLYELGQNDACLSLCWLPRDQKLLLAGMHRNLAIFDLRNTSQKMFVNTKAVQGVTVDPYFHDRVASFYEGQVAIWDLRKFEKPVLTLTEQPKPLTKVAWCPTRTGLLATLTRDSNIIRLYDMQHTPTPIGDETEPTIIERSVQPCDNYIASFAWHPTSQNRMIVVTPNRTMSDFTVFERISLAWSPITSLMWACGRHLYECTEEENDNSLEKDIATKMRLRALSRYGLDTEQVWRNHILAGNEDPQLKSLWYTLHFMKQYTEDMDQKSPGNKGSLVYAGIKSIVKSSLGMVESSRHNWSGLDKQSDIQNLNEERILALQLCGWIKKGTDVDVGPFLNSLVQEGEWERAAAVALFNLDIRRAIQILNEGASSEKGDLNLNVVAMALSGYTDEKNSLWREMCSTLRLQLNNPYLCVMFAFLTSETGSYDGVLYENKVAVRDRVAFACKFLSDTQLNRYIEKLTNEMKEAGNLEGILLTGLTKDGVDLMESYVDRTGDVQTASYCMLQGSPLDVLKDERVQYWIENYRNLLDAWRFWHKRAEFDIHRSKLDPSSKPLAQVFVSCNFCGKSISYSCSAVPHQGRGFSQYGVSGSPTKSKVTSCPGCRKPLPRCALCLINMGTPVSSCPGGTKSDEKVDLSKDKKLAQFNNWFTWCHNCRHGGHAGHMLSWFRDHAECPVSACTCKCMQLDTTGNLVPAETVQP
notes: MIOS, subunit of human GATOR2; codon-optimized DNA in pCAG; The MIOS chain of m1, for the pairs of subunits that touch in the structure

How the values were obtained:
[1] = target: T1, WDR59 (subunit of the recombinant GATOR2 complex) (human, UniProt Q6PJI9 1-974); experiment: cryo-EM structure; purified GATOR2 at 0.45 mg/ml with a threefold molar excess of CASTOR1^apo, 45 min on ice, no arginine; Titan Krios; details: both partners purified
T1 construct: WDR59, subunit of human GATOR2; codon-optimized DNA in pCAG; The WDR59 chain of m1
T1 sequence: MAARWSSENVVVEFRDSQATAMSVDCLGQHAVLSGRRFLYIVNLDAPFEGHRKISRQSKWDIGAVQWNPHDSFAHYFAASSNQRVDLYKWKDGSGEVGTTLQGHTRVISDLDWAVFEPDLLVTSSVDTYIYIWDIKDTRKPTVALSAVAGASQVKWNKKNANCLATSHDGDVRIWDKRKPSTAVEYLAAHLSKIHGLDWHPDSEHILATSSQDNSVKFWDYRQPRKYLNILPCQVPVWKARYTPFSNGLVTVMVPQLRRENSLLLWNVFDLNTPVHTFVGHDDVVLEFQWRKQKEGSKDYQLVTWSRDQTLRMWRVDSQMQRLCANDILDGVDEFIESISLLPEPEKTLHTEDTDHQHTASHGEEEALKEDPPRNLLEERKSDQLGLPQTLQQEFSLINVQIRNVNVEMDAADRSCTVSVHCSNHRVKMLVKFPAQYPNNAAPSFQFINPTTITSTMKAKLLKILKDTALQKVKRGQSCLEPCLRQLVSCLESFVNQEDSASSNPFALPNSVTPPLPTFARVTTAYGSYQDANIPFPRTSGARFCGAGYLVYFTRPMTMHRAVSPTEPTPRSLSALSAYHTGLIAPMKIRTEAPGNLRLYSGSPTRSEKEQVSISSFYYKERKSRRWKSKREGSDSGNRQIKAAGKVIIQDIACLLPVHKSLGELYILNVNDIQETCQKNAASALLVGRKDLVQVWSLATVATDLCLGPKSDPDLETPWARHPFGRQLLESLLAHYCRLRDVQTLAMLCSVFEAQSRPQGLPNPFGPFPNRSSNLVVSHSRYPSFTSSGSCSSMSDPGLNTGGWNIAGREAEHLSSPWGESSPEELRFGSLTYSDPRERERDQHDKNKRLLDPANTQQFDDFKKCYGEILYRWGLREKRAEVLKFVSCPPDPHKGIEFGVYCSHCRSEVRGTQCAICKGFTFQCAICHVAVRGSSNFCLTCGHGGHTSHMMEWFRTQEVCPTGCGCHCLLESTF

[2] = target: the molecule itself; experiment: as above
[3] = target: T2, WDR24 (subunit of the recombinant GATOR2 complex) (human, UniProt Q96S15 1-790); experiment: cryo-EM structure; purified GATOR2 at 0.45 mg/ml with threefold molar excess of CASTOR1^apo, twofold of SESN2^apo and threefold of GATOR1, 45 min on ice; Talos Arctica, 7.77 Å map; details: both partners purified
T2 construct: WDR24, subunit of human GATOR2; codon-optimized DNA in pCAG; The WDR24 chain of m1
T2 sequence: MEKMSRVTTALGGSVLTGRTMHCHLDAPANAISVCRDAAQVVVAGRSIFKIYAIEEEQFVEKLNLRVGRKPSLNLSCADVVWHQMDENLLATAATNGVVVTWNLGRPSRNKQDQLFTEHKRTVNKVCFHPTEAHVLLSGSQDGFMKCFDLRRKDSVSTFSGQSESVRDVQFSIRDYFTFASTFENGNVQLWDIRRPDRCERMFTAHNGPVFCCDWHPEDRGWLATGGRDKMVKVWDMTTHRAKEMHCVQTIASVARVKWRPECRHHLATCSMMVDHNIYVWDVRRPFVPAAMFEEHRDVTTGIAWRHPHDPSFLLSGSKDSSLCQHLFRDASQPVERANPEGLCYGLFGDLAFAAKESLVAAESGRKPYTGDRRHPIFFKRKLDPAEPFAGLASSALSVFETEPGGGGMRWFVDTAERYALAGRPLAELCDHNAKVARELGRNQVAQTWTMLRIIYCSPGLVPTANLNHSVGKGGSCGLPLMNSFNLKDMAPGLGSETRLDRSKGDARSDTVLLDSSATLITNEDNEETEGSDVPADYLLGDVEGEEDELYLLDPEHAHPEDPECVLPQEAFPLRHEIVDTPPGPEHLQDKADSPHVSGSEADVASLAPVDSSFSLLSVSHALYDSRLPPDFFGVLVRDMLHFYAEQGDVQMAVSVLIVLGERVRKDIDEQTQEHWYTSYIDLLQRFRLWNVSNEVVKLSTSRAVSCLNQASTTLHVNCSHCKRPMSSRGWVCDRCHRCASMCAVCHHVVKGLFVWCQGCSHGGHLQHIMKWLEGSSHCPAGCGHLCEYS

[4] = target: B1; experiment: cryo-EM structure; purified GATOR2 at 0.45 mg/ml with a threefold molar excess of CASTOR1^apo, 45 min on ice, no arginine; Titan Krios; details: both partners purified

Binder: B1
binding result [1]: binds | binding result [2]: binds

binding result [3]: binds
B2: SESN2(E451Q/R390A/W444E), apo-locked mutant (natural protein, UniProt P58004 1-480, looked up)
chain: MIVADSECRAELKDYLRFAPGGVGDSGPGEEQRESRARRGPRGPSAFIPVEEVLREGAESLEQHLGLEALMSSGRVDNLAVVMGLHPDYFTSFWRLHYLLLHTDGPLASSWRHYIAIMAAARHQCSYLVGSHMAEFLQTGGDPEWLLGLHRAPEKLRKLSEINKLLAHRPWLITKEHIQALLKTGEHTWSLAELIQALVLLTHCHSLSSFVFGCGILPEGDADGSPAPQAPTPPSEQSSPPSRDPLNNSGGFESARDVEALMERMQQLQESLLRDEGTSQEEMESRFELEKSESLLVTPSADILEPSPHPDMLCFVEDPTFGYEDFTRRGAQAPPTFRAQDYTWEDHGYSLIQRLYPEGGQLLDEKFQAAYSLTYNTIAMHSGVDTSVLARAIWNYIHCVFGIRYDDYDYGEVNQLLERNLKVYIKTVACYPEKTTRRMYNLFERHFRHSQKVHVNLLLLEARMQAALLYALRAITRYMT
notes: sestrin2 (SESN2), leucine sensor; codon-optimized DNA in pET-28a+; also called SESN2^apo; 6×His–SESN2^apo; source: E. coli BL21(DE3), purified (Ni-NTA, SP cation-exchange flowthrough, Superdex 200 gel filtration)

binding result [4]: binds
B3: CASTOR1(S111A/D304A), apo-locked mutant (natural protein)
chain: MELHILEHRVRVLSVARPGLWLYTHPLIKLLFLPRRSRCKFFSLTETPEDYTLMVDEEGFKELPPSEFLQVAEATWLVLNVSSHSGAAVQAAGVTKIARSVIAPLAEHHVAVLMLSTYQTDFILVREQDLSVVIHTLAQEFDIYREVGGEPVPVTRDDSSNGFPRTQHGPSPTVHPIQSPQNRFCVLTLDPETLPAIATTLIDVLFYSHSTPKEAASSSPEPSSITFFAFSLIEGYISIVMDAETQKKFPSDLLLTSSSGELWRMVRIGGQPLGFDECGIVAQIAGPLAAADISAYYISTFNFAHALVPEDGIGSVIEVLQRRQEGLAS
notes: CASTOR1, arginine sensor; codon-optimized DNA in pET-28a+; Homodimer in the structure; also called CASTOR1^apo; 6×His–CASTOR1^apo; source: E. coli BL21(DE3), purified (Ni-NTA, Superdex 200 gel filtration)
stoichiometry N [2]: 2

— paper PMC12477443, “Structural basis for mTORC1 regulation by the CASTOR1–GATOR2 complex” (Nature Structural & Molecular Biology, 2025)
